The target of one experiment is T1, CD226 (Homo sapiens (Human), UniProt Q15762 19-336).
T1 sequence: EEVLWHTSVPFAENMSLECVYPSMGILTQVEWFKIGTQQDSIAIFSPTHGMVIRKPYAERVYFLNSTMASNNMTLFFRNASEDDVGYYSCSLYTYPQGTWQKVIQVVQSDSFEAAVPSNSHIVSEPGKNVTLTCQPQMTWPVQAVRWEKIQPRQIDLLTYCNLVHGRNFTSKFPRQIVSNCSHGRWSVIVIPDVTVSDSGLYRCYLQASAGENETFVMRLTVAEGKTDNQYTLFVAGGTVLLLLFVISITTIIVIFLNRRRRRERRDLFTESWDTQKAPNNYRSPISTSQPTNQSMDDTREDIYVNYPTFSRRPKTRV
Briefly: flow cytometry, Fc fusion at 100 nM, CD226-transfected cells.

The target in a further experiment is T2, CD96 (UniProt P40200 22-585, limits assumed).
T2 construct: whole, on cells
T2 sequence (looked up): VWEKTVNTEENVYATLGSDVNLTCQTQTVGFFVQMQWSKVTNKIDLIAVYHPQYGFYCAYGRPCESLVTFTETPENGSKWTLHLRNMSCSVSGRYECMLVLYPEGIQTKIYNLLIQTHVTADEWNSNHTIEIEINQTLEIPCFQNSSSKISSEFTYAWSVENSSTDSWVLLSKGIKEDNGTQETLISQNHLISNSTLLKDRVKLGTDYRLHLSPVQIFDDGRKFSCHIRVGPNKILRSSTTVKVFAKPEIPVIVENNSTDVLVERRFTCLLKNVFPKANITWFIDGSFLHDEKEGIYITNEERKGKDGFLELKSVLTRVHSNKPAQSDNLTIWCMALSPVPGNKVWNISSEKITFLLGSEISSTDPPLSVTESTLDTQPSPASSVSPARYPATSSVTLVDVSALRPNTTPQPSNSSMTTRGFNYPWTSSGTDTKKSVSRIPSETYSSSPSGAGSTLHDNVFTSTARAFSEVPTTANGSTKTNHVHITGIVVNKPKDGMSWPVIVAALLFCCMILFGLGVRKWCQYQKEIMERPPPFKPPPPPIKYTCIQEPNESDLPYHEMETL
Briefly: flow cytometry, Fc fusion at 100 nM, CD96-transfected cells.

For a further experiment, the target named is T3, TIGIT (Homo sapiens (Human), UniProt Q495A1 22-244).
T3 sequence: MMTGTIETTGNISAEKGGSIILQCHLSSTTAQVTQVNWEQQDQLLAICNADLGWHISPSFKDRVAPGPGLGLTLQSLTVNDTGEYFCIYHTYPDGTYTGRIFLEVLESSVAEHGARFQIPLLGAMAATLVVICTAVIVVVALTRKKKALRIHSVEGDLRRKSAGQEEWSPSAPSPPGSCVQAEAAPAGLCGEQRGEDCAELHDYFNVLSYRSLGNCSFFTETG
Put plainly: flow cytometry, Fc fusion at 100 nM, TIGIT-transfected cells.

Data on 10 molecules can be found in patent US20210130436A1 (published 2021).

B1: variant CD155 IgV-Fc S42N/L104Q/G111R (Fc fusion, not shown: a dimerising Fc or GST)
chain: WPPPGTGDVVVQAPTQVPGFLGDSVTLPCYLQVPNMEVTHVNQLTWARHGESGSMAVFHQTQGPSYSESKRLEFVAARLGAELRNASLRMFGLRVEDEGNYTCQFVTFPQRSRSVDIWLRVL
For the molecule B1, the “MFI at 100 nM” value amounted to 2310 MFI with CD226, 1960 MFI in the experiment with CD96 and 2430 MFI with TIGIT.

B2: variant CD155 IgV-Fc S42N/S52Q/Q62F (Fc fusion, not shown: a dimerising Fc or GST)
chain: WPPPGTGDVVVQAPTQVPGFLGDSVTLPCYLQVPNMEVTHVNQLTWARHGEQGSMAVFHQTFGPSYSESKRLEFVAARLGAELRNASLRMFGLRVEDEGNYTCLFVTFPQGSRSVDIWLRVL
In the case of B2, the results for the “MFI at 100 nM” value in the experiment with CD226, with CD96 and with TIGIT were 2150 MFI, 1740 MFI and 2400 MFI, respectively.

B3: variant CD155 IgV-Fc S42W (Fc fusion, not shown: a dimerising Fc or GST)
chain: WPPPGTGDVVVQAPTQVPGFLGDSVTLPCYLQVPNMEVTHVWQLTWARHGESGSMAVFHQTQGPSYSESKRLEFVAARLGAELRNASLRMFGLRVEDEGNYTCLFVTFPQGSRSVDIWLRVL
B3: the entries for the “MFI at 100 nM” value with CD226, with CD96 and in the experiment with TIGIT were 2130 MFI, 2560 MFI and 2430 MFI, respectively.

B4: variant CD155 IgV-Fc S52M/L104Q (Fc fusion, not shown: a dimerising Fc or GST)
chain: WPPPGTGDVVVQAPTQVPGFLGDSVTLPCYLQVPNMEVTHVSQLTWARHGEMGSMAVFHQTQGPSYSESKRLEFVAARLGAELRNASLRMFGLRVEDEGNYTCQFVTFPQGSRSVDIWLRVL
B4: the “MFI at 100 nM” value in the experiment with CD226 was 2250 MFI; in the experiment with CD96 it was 1630 MFI; with TIGIT, 2670 MFI.

B5: variant CD155 IgV-Fc S52M/Q62Y (Fc fusion, not shown: a dimerising Fc or GST)
chain: WPPPGTGDVVVQAPTQVPGFLGDSVTLPCYLQVPNMEVTHVSQLTWARHGEMGSMAVFHQTYGPSYSESKRLEFVAARLGAELRNASLRMFGLRVEDEGNYTCLFVTFPQGSRSVDIWLRVL
Take B5: the “MFI at 100 nM” value in the experiment with CD226 came out at 2000 MFI; with CD96, 1650 MFI; in the experiment with TIGIT it was 1930 MFI.

B6: variant CD155 IgV-Fc S42Q (Fc fusion, not shown: a dimerising Fc or GST)
chain: WPPPGTGDVVVQAPTQVPGFLGDSVTLPCYLQVPNMEVTHVQQLTWARHGESGSMAVFHQTQGPSYSESKRLEFVAARLGAELRNASLRMFGLRVEDEGNYTCLFVTFPQGSRSVDIWLRVL
Turning to B6, the “MFI at 100 nM” value was 2230 MFI with CD226, 2140 MFI in the experiment with CD96 and 2070 MFI in the experiment with TIGIT.

B7: variant CD155 IgV-Fc S52M (Fc fusion, not shown: a dimerising Fc or GST)
chain: WPPPGTGDVVVQAPTQVPGFLGDSVTLPCYLQVPNMEVTHVSQLTWARHGEMGSMAVFHQTQGPSYSESKRLEFVAARLGAELRNASLRMFGLRVEDEGNYTCLFVTFPQGSRSVDIWLRVL
On to B7, for which the results for the “MFI at 100 nM” value with CD226, in the experiment with CD96 and with TIGIT were 1900 MFI, 1610 MFI and 1870 MFI, respectively.

B8: variant CD155 IgV-Fc S42W/S52Q/V57L/Q62Y (Fc fusion, not shown: a dimerising Fc or GST)
chain: WPPPGTGDVVVQAPTQVPGFLGDSVTLPCYLQVPNMEVTHVWQLTWARHGEQGSMALFHQTYGPSYSESKRLEFVAARLGAELRNASLRMFGLRVEDEGNYTCLFVTFPQGSRSVDIWLRVL
Take B8: the “MFI at 100 nM” value came out at 2140 MFI with CD226, 1700 MFI in the experiment with CD96 and 1960 MFI with TIGIT.

B9: variant CD155 IgV-Fc S42W/S52R/Q62Y/L104Q (Fc fusion, not shown: a dimerising Fc or GST)
chain: WPPPGTGDVVVQAPTQVPGFLGDSVTLPCYLQVPNMEVTHVWQLTWARHGERGSMAVFHQTYGPSYSESKRLEFVAARLGAELRNASLRMFGLRVEDEGNYTCQFVTFPQGSRSVDIWLRVL
Consider B9, for which the “MFI at 100 nM” value in the experiment with CD226 was 2300 MFI; in the experiment with CD96, 1760 MFI; with TIGIT it was 1920 MFI.

B10: variant CD155 IgV-Fc S52E (Fc fusion, not shown: a dimerising Fc or GST)
chain: WPPPGTGDVVVQAPTQVPGFLGDSVTLPCYLQVPNMEVTHVSQLTWARHGEEGSMAVFHQTQGPSYSESKRLEFVAARLGAELRNASLRMFGLRVEDEGNYTCLFVTFPQGSRSVDIWLRVL
As to B10, the entries for the “MFI at 100 nM” value in the experiment with CD226, with CD96 and in the experiment with TIGIT were 2600 MFI, 1800 MFI and 2660 MFI, respectively.
